Results published in patent US20200362029A1 (IMMUNOGEN, published 2020).

How the values were obtained:
[1] = biological target: T1, human folate receptor alpha (FRα) on FRα-positive cells (KB, T47D, JHOS-4) (human, UniProt P15328 25-234); experiment: competition FACS on FRα-positive T47D cells; Morrison antibody fixed at 0.8 nM, detected with anti-human FITC secondary; murine parental antibodies titrated (log axis -11 to -7, unit not given; text: 0.2 to 50 nM)
T1 construct: Endogenous FRα on human tumour cell lines; also called FOLR1; folate receptor 1
Experimental: These eight constructs were further polished using ceramic hydroxyapatite chromatography to greater than 95% purity and subjected to further characterization. To account for the effects of overall molecule conformation or potential structural changes of the scFv arms on the binding of the biparatopic arms, the binding efficiency of each arm of the eight Morrison's constructs was assayed by a competition FACS assay. Briefly, FRα-positive T47D cells were incubated with 0.8 nM of a Morrison's antibody mixed with a corresponding murine parental antibody at a range of concentrations, generally from 50 nM to 0.2 nM. After incubation on ice for 2 hours, cells were washed from unbound antibodies, and bound Morrison's antibody was detected with secondary anti-human FITC-labeled antibody. Reduced binding of the Morrison's antibody in the presence of increasing concentration of the parental antibody indicated an effect on binding of the second set of arms.

recombinant FRα antigen = recombinant FRα antigen (human, UniProt P15328 25-234); experiment: BLI (Octet96), IgG on anti-human- or anti-murine-Fc sensors, recombinant FRα in solution, 1:1 fit
Experimental: Table 10 summarizes the kinetic parameters of binding of Bin1 and Bin 2 antibodies with recombinant FRα antigen. KD values were obtained via biolayer interferometry performed on Octet96 system (Fortebio) essentially according to manufacturer's recommended procedure. Briefly, anti-human- or anti-murine −Fc sensors were presoaked in 1× Kinetic Buffer (Fortebio) for 10 min and incubated with 5 μg/mL of either Bin 1 or Bin 2 IgG for 5 min. The sensors were then sequentially moved to 1× Kinetic Buffer for 5 min to determine baseline, serial dilutions of antigen for association (10 min), and 1× Kinetic Buffer for dissociation (10 min). The raw data was collected, processed and fitted to a simple 1:1 binding model using Fortebio analysis software to determine the kinetic parameters Kon and Koff.

recombinant FRα antigen, sequence (P15328 25-234 limits assumed): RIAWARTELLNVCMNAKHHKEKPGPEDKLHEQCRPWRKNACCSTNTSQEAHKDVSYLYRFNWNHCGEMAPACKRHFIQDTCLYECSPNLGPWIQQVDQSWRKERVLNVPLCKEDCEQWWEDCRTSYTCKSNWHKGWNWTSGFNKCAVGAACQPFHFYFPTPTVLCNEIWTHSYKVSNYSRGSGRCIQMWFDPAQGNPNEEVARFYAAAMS
T1 sequence (P15328 25-234 limits assumed, stated change not applied): as the sequence (P15328 25-234 limits assumed) above

Row | binding result [1] | Kd (recombinant FRα antigen) [nM] | koff (recombinant FRα antigen) [s⁻¹] | kon (recombinant FRα antigen) [M⁻¹ s⁻¹] | Binder
1 | binds |  |  |  | Mov19-G1-FR57scFv1 (Molecule-1: mov19-IgG1-FR57scFv1) (bispecific antibody, Tetravalent Morrison format with the FR57 scFv on the C-terminus of the Mov19 IgG1 heavy chain; also called Mov19:FR57scFv; M9346A-FR57scFv) heavy: not shown light: DIVLTQSPLSLAVSLGQPAIISCKASQSVSFAGTSLMHWYHQKPGQQPRLLIYRASNLEAGVPDRFSGSGSKTDFTLTISPVEAEDAATYYCQQSREYPYTFGGGTKLEIKRTVAAPSVFIFPPSDEQLKSGTASVVCLLNNFYPREAKVQWKVDNALQSGNSQESVTEQDSKDSTYSLSSTLTLSKADYEKHKVYACEVTHQGLSSPVTKSFNRGEC
2 |  | 0.6 | 0.0003 | 500000 | huMov19 (M9346A) antibody (antibody, V domains shown, Humanized IgG1/kappa; also called huM9346A; huM9346A-biotin) VH: QVQLVQSGAEVVKPGASVKISCKASGYTFTGYFMNWVKQSPGQSLEWIGRIHPYDGDTFYNQKFQGKATLTVDKSSNTAHMELLSLTSEDFAVYYCTRYDGSRAMDYWGQGTTVTVSS VL: DIVLTQSPLSLAVSLGQPAIISCKASQSVSFAGTSLMHWYHQKPGQQPRLLIYRASNLEAGVPDRFSGSGSKTDFTLTISPVEAEDAATYYCQQSREYPYTFGGGTKLEIKR
3 |  | 1 | 0.0004 | 300000 | FR57 antibody (antibody, V domains shown, Tested as an IgG; Only the variable domains are tied to the stand-alone antibody; also called huFR57; FR1-57) VH: EVQLVESGGGLVQPGGSRRLSCAASGFTFSSFGMHWVRQAPGKGLEWVAYISSGSSTISYADSVKGRFTISRDNSKKTLLLQMTSLRAEDTAMYYCAREAYGSSMEYWGQGTLVTVSS VL: EIVLTQSPATLSVTPGDRVSLSCRASQNINNNLHWYQQKPGQSPRLLIKYVSQSVSGIPDRFSGSGSGTDFTLSISSVEPEDFGMYFCQQSNSWPHYTFGQGTKLEIK
4 | binds |  |  |  | FR57-G1-Mov19scFv1 (Molecule 2: FR57-IgG1-mov19scFv1) (bispecific antibody, Tetravalent Morrison format with the Mov19 scFv on the C-terminus of the FR57 IgG1 heavy chain; also called FR57:Mov19scFv; FR57-M9346AscFv) heavy: not shown light: EIVLTQSPATLSVTPGDRVSLSCRASQNINNNLHWYQQKPGQSPRLLIKYVSQSVSGIPDRFSGSGSGTDFTLSISSVEPEDFGMYFCQQSNSWPHYTFGQGTKLEIKRTVAAPSVFIFPPSDEQLKSGTASVVCLLNNFYPREAKVQWKVDNALQSGNSQESVTEQDSKDSTYSLSSTLTLSKADYEKHKVYACEVTHQGLSSPVTKSFNRGEC
